Laboratory results published in paper PMC7152510 (Nature structural & molecular biology, 2017).
Numbering of substitutions follows the chain as printed. Numbers in names are those of the source. Like-named read-outs stand apart in the source and are kept apart here. Each block holds one molecule with its values, some of them ahead of it.

Tests used:
[1] = target: ΔMIT katanin p60 (E293Q) (Caenorhabditis elegans); experiment: solution SAXS
[2] = target: the molecule itself; experiment: AUC
[3] = target: the molecule itself; experiment: AUC; remark: listed apart in the source

stoichiometry N [1]: 6
Molecule: ΔMIT katanin p60 (E293Q) (domain or fragment)

B1: Caenorhabditis elegans katanin p60 (MEI-1), catalytic subunit, wild type (enzyme, UniProt P34808 1-472, looked up)
chain: MNGDVQSVIRGYLERAQVAKTMSDAGRWNEAGDLLRQLMTDVKSCKISASNRDEHDARNTFLRALEANLKLVQQNVRDEDDLHEAMTRQSGSPEPPADPDVWSKPSPPLPSSSKFGATKKGVGAAGPRPREISKSTSSMSTNPADVKPANPTQGILPQNSAGDSFDASAYDAYIVQAVRGTMATNTENTMSLDDIIGMHDVKQVLHEAVTLPLLVPEFFQGLRSPWKAMVLAGPPGTGKTLIARAIASESSSTFFTVSSTDLSSKWRGDSEKIVRLLFELARFYAPSIIFIDEIDTLGGQRGNSGEHEASRRVKSEFLVQMDGSQNKFDSRRVFVLAATNIPWELDEALRRRFEKRIFIPLPDIDARKKLIEKSMEGTPKSDEINYDDLAARTEGFSGADVVSLCRTAAINVLRRYDTKSLRGGELTAAMESLKAELVRNIDFEAALQAVSPSAGPDTMLKCKEWCDSFGAM
stoichiometry N [2]: 6

B2: Caenorhabditis elegans katanin p60 (E293Q), Walker B mutant, full-length (enzyme, UniProt P34808 1-472, looked up)
chain: B1 chain with E293Q
stoichiometry N [3]: 6
